We go through 24 sequences from the supplement of paper PMC9170038.

For the series, the system named is MS2 coat protein. Put plainly: apparent KD of MS2 coat protein; designed switch direction (-1 OFF switch, 1 ON switch): -1; higher = weaker reporter binding. The method in brief: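 An oligonucleotide input, 200 uM small-molecule ligand, or no input was present during titration of SNAP-549-labelled MS2 coat protein, which was doubled from 0.7 or 1.5 nM to 3 µM. Designed RNA switches had been transcribed on Illumina chips by stalled E. coli RNA polymerase. Apparent KD per design is the median over clusters of curves fitted to normalised cluster fluorescence.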

The mark [1] stands for this setting: input ligand: microRNA oligo, concentration not stated.
Where [2] appears, read: Eterna round: R95, input ligand: microRNA oligo, concentration not stated.
Setting [3] is: Eterna round: R95, input ligand: FMN 200 uM.
Setting [4] is: Eterna round: R95, input ligand: none.

As to “UGCAGACGAGGAUAUGAUAAAGAUCACAUGAGGAUCACCCAUGUACGCAGGAUACUGCGAUCAGAAGGCGUCUGCA [E5/1-A3] (Eterna round: R97, puzzle: Exclusion 5)”, the “apparent KD of MS2 coat protein” value (input ligand: FMN 200 uM) came out at 0.0163 µM and the “apparent KD of MS2 coat protein” value (input ligand: none) is 0.013 µM.
With “UACAUGAGGAUCACCCAUGUUUUGUCGUGUAUGGUAUUUAUCUAGGAUAUCAAGUUAUUAAUUUAUGAGAAGGAGAAUAUUAAU [JMF's solution 32] (Eterna round: R96, puzzle: Exclusion NG 3)”, the “apparent KD of MS2 coat protein” value was 0.0439 µM (input ligand: FMN 200 uM), 0.0274 µM under setting [1] and 0.0421 µM (input ligand: none).
As for “UUUUUACGAGGAUAUCGUUUUUUUCACAUGAGGAUCACCCAUGUUGUUUAUGUUGCGUUGCGAGAAGGCGUUUGUU [JR_E5_Sub063] (puzzle: Exclusion 5)”, under setting [2], the “apparent KD of MS2 coat protein” value turned out to be 0.0242 µM.
With “GUGGUGGGUUUUUCGAGUAACAUGAGGAUCACCCAUGUAUUAGUUGGAUGUAUCAAGCUUUGUGCUCGACUUAUAUA [JR_SV3TOV1_Sub044] (puzzle: Sensor v3, turn-off variant 1)”, the “apparent KD of MS2 coat protein” value runs as follows: under setting [3], 0.659 µM; under setting [2], 0.442 µM; under setting [4], 0.696 µM.
For the sequence “AUAAUACAUGAGGAUCACCCAUGUGAGGAUAUACGACUCCAACCAAACUGCUUGGACCGUAGAAGGCACAAGGG [Exclusion 1 (MOD1 Esqu)] (Eterna round: R97, puzzle: Exclusion 1)”, the “apparent KD of MS2 coat protein” value stood at 0.0227 µM (input ligand: FMN 200 uM) and 0.589 µM (input ligand: none).
As to “GUGCCGCGAGGAUAUACAGACGGGUCCAUUACGUGUCUCGGACUUGAGGAUCACCCAAGUAGAAGGCGUUUCAG [salish99_ex2_r4_624] (Eterna round: R97, puzzle: Exclusion 2)”, the “apparent KD of MS2 coat protein” value (input ligand: FMN 200 uM) turned out to be 0.0207 µM and the “apparent KD of MS2 coat protein” value (input ligand: none) turned out to be 0.0384 µM.
As to “AGAACACAUGAGGAUCACCCAUGUCAGGAUAUCGACUGAACAGCUUCGGCUGUUCAGUCGAGAAGGGACAAUUA [Brourdxlusion 6 - Jieux - Exclusion 1] (Eterna round: R97, puzzle: Exclusion 1)”, the “apparent KD of MS2 coat protein” value runs as follows: (input ligand: FMN 200 uM) 0.12 µM; (input ligand: none) 0.0558 µM.
For “UUAAGGGACUGAGGAUAUACAUGAAUUAUUUUUGUAGAAGGCAGAUUGUUAGUUUAUUCACUAUACAUGAGGAUCACCCAUGUU [JR_ExcNG1_Sub020] (Eterna round: R96, puzzle: Exclusion NG 1)”, the “apparent KD of MS2 coat protein” value under setting [1] stood at 0.0183 µM.
Consider “CAAUUCCGAGGAUAUACAUGAGGAUCACCCAUGUCGGGCCUCAGCGUUUAGCGCUUAAGUAGAAGGUGGGUUUC [JL Riri mod 5] (puzzle: Exclusion 3)”, for which the “apparent KD of MS2 coat protein” value under setting [2] worked out at 0.0325 µM.
For “CUGGUCCGAGGAUAUAUUUAGUGAAACAUGAGGAUCACCCAUGUUAUUAGAUGGAUGUAAAUAGAAGGCGGACUAG [Mat - Exclusion 5 - JL mod - D63] (puzzle: Exclusion 5)”, the “apparent KD of MS2 coat protein” value was 0.0185 µM under setting [3], 0.0204 µM under setting [2] and 0.0238 µM under setting [4].
In the case of “ACGUGAUAUCUGUCGGUGGACAUGAGGAUCACCCAUGUAAGCUUUUUGCUCGUCUUAUAACCCGGUGACAGACCUUC [Tixeed] (puzzle: Sensor v3, turn-off variant 1)”, the “apparent KD of MS2 coat protein” value reads like this: under setting [3], 0.0337 µM; under setting [2], 0.268 µM; under setting [4], 0.0373 µM.
As to “UAUUACGCAAGCAGGUCCCACAUGAGGAUCACCCAUGUGCUCGUCUUAUAACGAUCUGUGGGAAAACCUACGGAUCG [Elimod 19 - Jieux - Sensor, turn-off variant 1] (Eterna round: R97, puzzle: Sensor, turn-off variant 1)”, the “apparent KD of MS2 coat protein” value was 0.0458 µM (input ligand: FMN 200 uM) and 0.0484 µM (input ligand: none).
With “GAUUGACAUGAGGAUCACCCAUGUGAGGAUAUCGGCUGGACCGUGUUGGCCUGCCUCUCGAGAAGGCGCAUAGG [Exclusion 1 V53] (puzzle: Exclusion 1)”, the “apparent KD of MS2 coat protein” value stood at 0.0499 µM under setting [3], 0.0356 µM under setting [2] and 0.0405 µM under setting [4].
Consider “AAUAAACAUGAGGAUCACCCAUGUGAGGAUAUCCAAAUAAAUAAUAAAAUAAAUAAAAGGAGAAGGCACAAUAA [JMF most obvious solution 2] (puzzle: Exclusion 1)”, for which the “apparent KD of MS2 coat protein” value by setting is: under setting [3], 0.0717 µM; under setting [2], 0.198 µM; under setting [4], 0.19 µM.
On to “AAGAAACAUGAGGAUCACCCAUGUGAGGAUAUGAAAAAGAAAAGAAAAGAAAGAAGAUUCAGAAGGCACAAAGG [salish99-ex1_r3_021] (puzzle: Exclusion 1)”, for which the “apparent KD of MS2 coat protein” value runs as follows: under setting [3], 0.0607 µM; under setting [2], 0.0319 µM; under setting [4], 0.0339 µM.
As to “GUCACUAGAGGAUAUACAAUGGUAUAUGAUCCUAGAGACAAACAUGAGGAUCACCCAUGUAGAAGGCUAGUAAA [Exclusion 2 - 1] (puzzle: Exclusion 2)”, the “apparent KD of MS2 coat protein” value under setting [3] is 0.0321 µM, the “apparent KD of MS2 coat protein” value under setting [2] stood at 0.153 µM and the “apparent KD of MS2 coat protein” value under setting [4] was 0.0895 µM.
With “AUUUUGUGAGGAUAUUAGUUGUAGAAAGUUGUUAGUAUUGCUGAGAAGGCACAUGAGGAUCACCCAUGUACAAC [JR_Ex4_Sub038] (Eterna round: R97, puzzle: Exclusion 4)”, the “apparent KD of MS2 coat protein” value is 0.0206 µM (input ligand: FMN 200 uM) and 0.0191 µM (input ligand: none).
As for “GACUGCCGAGGAUAUACAUGAGGAUCACCCAUGUGCUUCAGCAUUUAAUAAUGCAUGGGUAGAAGGCGGUAGUC [LRO-Excl3-12] (puzzle: Exclusion 3)”, under setting [2], the “apparent KD of MS2 coat protein” value worked out at 0.0405 µM.
With “CUUUUGUGAGGAUAUCAGUGGUAAAACAAUAGUAUUACUACUGAGAAGGCACAUGAGGAUCACCCAUGUUCCUC [Mat - Exclusion 4 - Mod of Omei - D85] (puzzle: Exclusion 4)”, under setting [2], the “apparent KD of MS2 coat protein” value is 0.0427 µM.
Same read-out and setting: the same measure for “ACGAGGUCAGGAUAUACGGAGAGAGGGAGUUGGUUAGGGUAACAUGAGGAUCACCCAUGUAGAAGGGACUAGGG [JR_Exclu2_Sub080] (puzzle: Exclusion 2)”: 0.0399 µM.
Regarding “AUUAUGUGAGGAUAUUAGUAGUAAAUAAAUAAAAUUAUUACUGAGAAGGCACAUGAGGAUCACCCAUGUUCCUU [Salish 062 v6] (Eterna round: R97, puzzle: Exclusion 4)”, the “apparent KD of MS2 coat protein” value runs as follows: (input ligand: FMN 200 uM) 0.127 µM; (input ligand: none) 0.0241 µM.
On to “CAUACAGUAGUCAGGAUAUUGGAAGAGACACGGAACGAGAAGGGACAUGAGGAUCACCCAUGUAUACUGUAAAG [EX-4 Malc #4] (puzzle: Brourd's mod of Exclusion 4)”, for which the “apparent KD of MS2 coat protein” value under setting [2] was determined as 0.0238 µM.
For the sequence “UUAAAUCAUGUAGGAUAUGCGUGGAGAAACUAUGCAGAAGGACAUGAGGAUCACCCAUGUGCUUCCGUCUGAGAACAGACGGUA [Mat - Exclusion NG 1 - Mod of JL - D14] (Eterna round: R96, puzzle: Exclusion NG 1)”, the “apparent KD of MS2 coat protein” value (input ligand: FMN 200 uM) was 0.285 µM, the “apparent KD of MS2 coat protein” value under setting [1] was 0.0432 µM and the “apparent KD of MS2 coat protein” value (input ligand: none) was determined as 0.0579 µM.
As for “CCAAUGUAAGGAUAUGACAAUGGUAUCUUCGGAUACCAUUGUCAGAAGGUACAUGAGGAUCACCCAUGUAUAAA [Ex4-3: 10] (puzzle: Exclusion 4)”, the “apparent KD of MS2 coat protein” value under setting [2] came out at 0.0173 µM.
